Patent US7202069B2, “(R)-2-octanol dehydrogenases, methods for producing the enzymes, DNA encoding the enzymes, and methods for producing alcohols using the enzymes” (Daicel Chemical Industries, Ltd., priority 2000, dated 2007)

Assay: (R)-2-octanol oxidation activity of the purified enzyme (specific activity, optimum pH, optimum temperature)
Assay type: biochemical, Pichia finlandica
Details: after Superdex 200 gel filtration
Procedure: On the other hand, oxidation activity on (R)-2-octanol can be measured as follows. The activity can be validated by incubating at 30° C. the reaction mixture containing Tris-HCl buffer (pH 8.5, 50 mM), 2.5 mM NAD^+, 5 mM (R)-2-octanol, and the enzyme and by measuring increase of absorbance at 340 nm accompanying generation of NADH. 1 U was defined as the amount of the enzyme catalyzing generation of 1 μmol of NADH for 1 minute.
The highest specific activity of the purified enzyme was about 91 U/mg-protein which is the activity of oxidizing (R)-2-octanol.
We examined (R)-2-octanol dehydrogenase activity of the enzyme obtained from Example 3 changing pH by using phosphate buffer (KPB), Tris-HCl buffer, Glycine buffer. […] As a result, the optimum pH of the enzyme was from 8.0 to 11.0.
We examined (R)-2-octanol oxidation activity of the enzyme obtained from Example 3 changing only temperature in the standard reaction conditions. […] As a result, the optimum temperature of the enzyme was from 45 to 55.

B1: (R)-2-octanol dehydrogenase from Pichia finlandica: NAD+-dependent (R)-2-octanol dehydrogenase purified from Pichia finlandica DSM 70280; amino acid sequence SEQ ID NO:2 (protein, listed as Pichia finlandica)
chain: MSYNFHNKVAVVTGALSGIGLSVAKKFLQLGAKVTISDVSGEKKYHETVVALKAQNLNTDNLHYVQADSSKEEDNKKLISETLATFGGLDIVCANAGIGKFAPTHETPFDVWKKVIAVNLNGVFLLDKLAINYWLEKSKPGVIVNMGSVHSFVAAPGLAHYGAAKGGVKLLTQTLALEYASHGIRVNSVNPGYISTPLIDEVPKERLDKLVSLHPIGRLGRPEEVADAVAFLCSQEATFINGVSLPVDGGYTAQ
- highest specific activity of the purified enzyme, oxidizing (R)-2-octanol: about 91 U/mg-protein
